Source: paper PMC5395944, “Structural basis of inhibition of lipid-linked oligosaccharide flippase PglK by a conformational nanobody” (Scientific Reports, 2017)
Several values for one entry are separate records, joined by “and”; a condition that tells them apart may be missing. Equal values may be shown once.

How the values were obtained:
PglK-E510Q = target: T1, PglK-E510Q (C. jejuni, UniProt Q0P9C4, E510Q); test: crystal structure; settings: both partners purified
T1 construct: also called PglK mutant E510Q; source: E. coli BL21-Gold (DE3), purified from membranes in detergent (NiNTA, size exclusion chromatography)

[1] = target: PglK wild type (lipid-linked oligosaccharide flippase, ABC transporter) from Campylobacter jejuni (C. jejuni, UniProt Q0P9C4); test: cross-linking; 0.1% glutaraldehyde for 30 min, then high-mass MALDI mass spectrometry; PglK 18 μM and Nb 18 μM (1:2 PglK-homodimer:Nb), 10 mM HEPES pH 7.5, 100 mM NaCl, 0.016% LMNG; without nucleotides or with 5 mM MgCl2 and 5 mM ADP or ATP; settings: both partners purified

B1: Nb87 (inhibitory conformational nanobody against PglK) (VHH)
VHH: QVQLQESGGGLVQPGGSLRLSCAASGFTFSSYAMSWVRQAPGKGLEWVSAITSGGGSTSYSDAVKGRFTISRDNAKNTLYLQMNSLKPEDTAVYYCAKGYVVDFLDLAEYDSWGQGTQVTVSS
notes: source: E. coli WK6, periplasmic extract, purified (NiNTA)
For B1, the “stoichiometry N” value (PglK-E510Q) was 1 Nb87 per PglK homodimer and the “stoichiometry N” value [1] was 1 Nb87 per PglK homodimer and 2 Nb87 per PglK homodimer.
